{"source": "patent US20240229000A1", "about": "“METHODS AND COMPOSITIONS THEREOF FOR SITE-[…] LABELING OF HUMAN IgG BY PROXIMITY-BASED SORTASE-MEDIATED LIGATION” (THE TRUSTEES OF THE UNIVERSITY OF PENNSYLVANIA, priority 2021, published 2024)", "molecules": {"B1": {"name": "5M SrtA-pG (protein)", "chain": "MQAKPQIPKDKSKVAGYIEIPDADIKEPVYPGPATREQLNRGVSFAEENESLDDQNISIAGHTFIDRPNYQFTNLKAAKKGSMVYFKVGNETRKYKMTSIRNVKPTAVEVLDEQKGKDKQLTLITCDDYNEETGVWETRKIFVATEVKGGSGGSMTFKLIINGKTLKGEITIEAVDAAEAEKIFKQYANDYGIDGEWTYDDATKTFTVTE"}}, "tested_on": "trastuzumab (HCLPETG+LC)", "sequence (as listed by the source, other chains not shown)": "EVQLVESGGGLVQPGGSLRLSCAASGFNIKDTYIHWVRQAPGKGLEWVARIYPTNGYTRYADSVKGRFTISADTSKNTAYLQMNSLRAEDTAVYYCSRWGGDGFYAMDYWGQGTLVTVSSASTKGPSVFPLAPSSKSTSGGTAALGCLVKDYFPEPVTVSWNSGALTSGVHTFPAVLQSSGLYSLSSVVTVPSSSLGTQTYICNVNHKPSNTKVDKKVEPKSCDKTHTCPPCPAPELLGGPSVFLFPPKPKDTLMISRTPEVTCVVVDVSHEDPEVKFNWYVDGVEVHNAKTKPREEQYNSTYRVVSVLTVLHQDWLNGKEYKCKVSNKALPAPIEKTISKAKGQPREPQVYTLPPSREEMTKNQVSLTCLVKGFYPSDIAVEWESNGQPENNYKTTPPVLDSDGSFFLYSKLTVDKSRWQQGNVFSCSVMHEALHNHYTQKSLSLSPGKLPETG", "assay": "Proximity-based sortase-mediated protein ligation (PBS-PL) heavy chain labeling with GGG-TAMRA", "assay_type": "biochemical", "conditions": "1 μg trastuzumab (HCLPETG+LC), 200 μM GGG-TAMRA, 37° C. overnight", "description": "FIGS. 13A-13C show comparison of proximity-based sortase-mediated protein ligation with 1M SrtA versus traditional sortase labeling with the pentamutant SrtA. FIG. 13A: Heavy chain labeling of trastuzumab (HCLPETG+LC) was carried out by titrating 5M SrtA (5M SrtA/antibody molar ratios ranging from 1:1 to 100:1) and comparing the labeling efficiency to that of 5M SrtA-pG, 1M SrtA-pZ, 1M SrtA-pG, and 1M pG-SrtA. […] Labeling efficiencies of 5M SrtA (FIG. 13B) and 1M SrtA-pZ (FIG. 13C) on the heavy chain were further compared by scaling the GGG-TAMRA concentration from 1-200 μM. Reaction conditions included: 1 μg trastuzumab (HCLPETG+LC), 500 μM CaCl2, 200 μM GGG-TAMRA, and 0.63 μM SrtA variant (1:1 molar ratio of 1M SrtA-pZ to antibody) in 10 mM Tris-HCl buffer (37° C. overnight). For all titration experiments, all other reactions conditions were held constant. Labeling efficiencies were determined by measuring the fluorescent intensity of the heavy chain band. For each experiment, these values were normalized against the maximum fluorescent intensity to compare across reaction conditions. One-way ANOVA was used to determine statistical significance (*P<0.05, n.s.=not significant), followed by Tukey's multiple comparisons test. Bar graphs are represented as average f SD. N=3 per reaction condition."}
{"molecule": "B1", "values": [{"measurement": "heavy chain labeling efficiency of trastuzumab (HCLPETG+LC)", "result": "did not label antibodies as efficiently as 1 M SrtA-pG and 1M SrtA-pZ"}]}
